Experimental data from patent US20240010684A1 (Bayer, published 2024).
Bridges are numbered along the chain shown (N, C = ends). Where no end group is shown, it is not given here. [ ]: non-standard residue; d: D form. Oic = O=C(O)[C@@H]1C[C@@H]2CCCC[C@@H]2N1; tBuAla = CC(C)(C)C[C@H](N)C(=O)O; Pen = CC(C)(S)[C@H](N)C(=O)O; Dap = NC[C@H](N)C(=O)O; Ahx = NCCCCCC(=O)O; Sar = CNCC(=O)O

B1: Reference peptide 12: P**FC+IPPISKTC+RGD** (peptide)
peptide: cyclo(PFCIPPISKTCRGD)
modifications: disulfide 3-11
SMILES: CC[C@H](C)[C@@H]1NC(=O)[C@@H]2CCCN2C(=O)[C@@H]2CCCN2C(=O)[C@H]([C@@H](C)CC)NC(=O)[C@@H]2CSSC[C@H](NC(=O)[C@H]([C@@H](C)O)NC(=O)[C@H](CCCCN)NC(=O)[C@H](CO)NC1=O)C(=O)N[C@@H](CCCNC(=N)N)C(=O)NCC(=O)N[C@@H](CC(=O)O)C(=O)N1CCC[C@H]1C(=O)N[C@@H](Cc1ccccc1)C(=O)N2
B2: Bicyclic SFMI-2: G**YC+SRSYPPVC+IPD** (peptide)
peptide: cyclo(GYCSRSYPPVCIPD)
modifications: disulfide 3-11
SMILES: CC[C@H](C)[C@@H]1NC(=O)[C@@H]2CSSC[C@H](NC(=O)[C@H](Cc3ccc(O)cc3)NC(=O)CNC(=O)[C@H](CC(=O)O)NC(=O)[C@@H]3CCCN3C1=O)C(=O)N[C@@H](CO)C(=O)N[C@@H](CCCNC(=N)N)C(=O)N[C@@H](CO)C(=O)N[C@@H](Cc1ccc(O)cc1)C(=O)N1CCC[C@H]1C(=O)N1CCC[C@H]1C(=O)N[C@@H](C(C)C)C(=O)N2
B3: Bicyclic SFMI-1: G**IC+SRSLPPIC+IPD** (peptide)
peptide: cyclo(GICSRSLPPICIPD)
modifications: disulfide 3-11
SMILES: CC[C@H](C)[C@@H]1NC(=O)CNC(=O)[C@H](CC(=O)O)NC(=O)[C@@H]2CCCN2C(=O)[C@H]([C@@H](C)CC)NC(=O)[C@@H]2CSSC[C@H](NC1=O)C(=O)N[C@@H](CO)C(=O)N[C@@H](CCCNC(=N)N)C(=O)N[C@@H](CO)C(=O)N[C@@H](CC(C)C)C(=O)N1CCC[C@H]1C(=O)N1CCC[C@H]1C(=O)N[C@@H]([C@@H](C)CC)C(=O)N2

Biological target: T1, recombinant human MASP1 (amino acids 297-699, C-terminal His Tag) (human, UniProt P48740 297-699)
T1 sequence: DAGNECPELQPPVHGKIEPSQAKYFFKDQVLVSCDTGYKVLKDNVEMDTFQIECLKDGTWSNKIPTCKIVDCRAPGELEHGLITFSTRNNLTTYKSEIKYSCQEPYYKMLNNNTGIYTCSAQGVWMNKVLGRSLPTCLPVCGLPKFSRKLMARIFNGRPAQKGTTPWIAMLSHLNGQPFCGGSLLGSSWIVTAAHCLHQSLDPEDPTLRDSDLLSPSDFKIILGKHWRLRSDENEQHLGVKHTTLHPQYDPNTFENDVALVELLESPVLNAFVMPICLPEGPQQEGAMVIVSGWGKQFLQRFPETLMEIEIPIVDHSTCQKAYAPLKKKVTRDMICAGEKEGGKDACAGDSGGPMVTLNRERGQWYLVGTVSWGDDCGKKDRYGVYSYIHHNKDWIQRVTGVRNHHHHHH
Test: cell-based or functional assay

Row | human MASP1 IC50 | Binder
1 | 4800 nM | B1
2 | 8130 nM | B2
3 | 145 nM | B3

Biological target: T2, recombinant human MASP2 (amino acids 297-686, C-terminal His Tag) (human, UniProt O00187 297-686)
Test: cell-based or functional assay

T2 sequence (O00187 other isoform, or with tags, fused parts or gaps limits assumed): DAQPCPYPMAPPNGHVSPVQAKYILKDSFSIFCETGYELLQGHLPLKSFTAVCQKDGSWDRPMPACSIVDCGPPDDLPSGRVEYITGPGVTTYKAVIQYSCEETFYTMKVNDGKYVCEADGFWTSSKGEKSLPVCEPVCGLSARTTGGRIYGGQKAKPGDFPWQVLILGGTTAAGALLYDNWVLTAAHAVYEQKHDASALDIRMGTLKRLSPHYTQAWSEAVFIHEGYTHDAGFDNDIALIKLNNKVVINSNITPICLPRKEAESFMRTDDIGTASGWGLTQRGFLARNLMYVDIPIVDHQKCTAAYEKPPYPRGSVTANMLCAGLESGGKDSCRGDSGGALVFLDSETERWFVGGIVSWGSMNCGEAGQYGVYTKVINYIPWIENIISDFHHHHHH

Row | human MASP2 IC50 | Binder
4 | 5000 nM | B1
5 | 895 nM | B3

Biological target: T1, recombinant human MASP1 (amino acids …)
Test: cell-based or functional assay
Remark: another data set of the same source

Row | human MASP1 IC50 | Binder
6 | 6 nM | cyclo(AGGICSRS[tBuAla]PPI[Pen]IP[dD]) (disulfide 5-13; also: TFA salt) [Example 39: A**GGIC+SRS-((tBu)A)-PPI-(Pen)+-IPd**]
7 | 7.9 nM | cyclo([Ahx]ICSRS[tBuAla]PPI[Pen]I) (disulfide 3-11; also: TFA salt) [Example 52: (Ahx)**-IC+SRS-((tBu)A)-PPI-(Pen)+-I**]
8 | 6.75 nM | cyclo([Ahx]AICSRS[tBuAla]PPI[Pen]IP) (disulfide 4-12; also: TFA salt) [Example 53: (Ahx)**-AIC+SRS-((tBu)A)-PPI-(Pen)+-IP**]
9 | 35 nM | EGICSRSLP[Oic]I[Pen]IPD[Dap]-NH2 (lactam 1-16; disulfide 4-12; also: TFA salt) [Example 93: E++GIC+SRSLP-(Oic)-I-(Pen)+-IPD-(Dap)++-NH2]
10 | 19 nM | cyclo([Ahx]GICSRS[tBuAla]PPI[Pen]IPD) (disulfide 4-12; also: TFA salt) [Example 28: (Ahx)**-GIC+SRS-((tBu)A)-PPI-(Pen)+-IPD**]
11 | 9 nM | cyclo(ICSRS[tBuAla]PPI[Pen]IPP) (disulfide 2-10; also: TFA salt) [Example 58: I**C+SRS-((tBu)A)-PPI-(Pen)+-IPP**]
12 | 8.4 nM | cyclo(AGGICSRSLP[Oic]I[Pen]IPD) (disulfide 5-13; also: TFA salt) [Example 92: A**GGIC+SRSLP-(Oic)-I-(Pen)+-IPD**]
13 | 8.5 nM | cyclo([Ahx][Sar]ICSRS[tBuAla]PPI[Pen]IP) (disulfide 4-12; also: TFA salt) [Example 54: (Ahx)**-((N-Me)G)-IC+SRS-((tBu)A)-PPI-(Pen)+-IP**]

Biological target: T2, recombinant human MASP2 (amino acids …)
Test: cell-based or functional assay
Remark: another data set of the same source

Row | human MASP2 IC50 | Binder
14 | 75 nM | cyclo(AGGICSRS[tBuAla]PPI[Pen]IP[dD]) (disulfide 5-13; also: TFA salt) [Example 39: A**GGIC+SRS-((tBu)A)-PPI-(Pen)+-IPd**]
15 | 9.3 nM | cyclo([Ahx]ICSRS[tBuAla]PPI[Pen]I) (disulfide 3-11; also: TFA salt) [Example 52: (Ahx)**-IC+SRS-((tBu)A)-PPI-(Pen)+-I**]
16 | 83.5 nM | cyclo([Ahx]AICSRS[tBuAla]PPI[Pen]IP) (disulfide 4-12; also: TFA salt) [Example 53: (Ahx)**-AIC+SRS-((tBu)A)-PPI-(Pen)+-IP**]
17 | 45 nM | EGICSRSLP[Oic]I[Pen]IPD[Dap]-NH2 (lactam 1-16; disulfide 4-12; also: TFA salt) [Example 93: E++GIC+SRSLP-(Oic)-I-(Pen)+-IPD-(Dap)++-NH2]
18 | 29 nM | cyclo([Ahx]GICSRS[tBuAla]PPI[Pen]IPD) (disulfide 4-12; also: TFA salt) [Example 28: (Ahx)**-GIC+SRS-((tBu)A)-PPI-(Pen)+-IPD**]
19 | 650 nM | cyclo(ICSRS[tBuAla]PPI[Pen]IPP) (disulfide 2-10; also: TFA salt) [Example 58: I**C+SRS-((tBu)A)-PPI-(Pen)+-IPP**]
20 | 77 nM | cyclo(AGGICSRSLP[Oic]I[Pen]IPD) (disulfide 5-13; also: TFA salt) [Example 92: A**GGIC+SRSLP-(Oic)-I-(Pen)+-IPD**]
21 | 33 nM | cyclo([Ahx][Sar]ICSRS[tBuAla]PPI[Pen]IP) (disulfide 4-12; also: TFA salt) [Example 54: (Ahx)**-((N-Me)G)-IC+SRS-((tBu)A)-PPI-(Pen)+-IP**]

Biological target: T3, recombinant rat MASP1 (amino acids 302-704, C-terminal His Tag) (rat, UniProt Q8CHN8 302-704)
T3 sequence: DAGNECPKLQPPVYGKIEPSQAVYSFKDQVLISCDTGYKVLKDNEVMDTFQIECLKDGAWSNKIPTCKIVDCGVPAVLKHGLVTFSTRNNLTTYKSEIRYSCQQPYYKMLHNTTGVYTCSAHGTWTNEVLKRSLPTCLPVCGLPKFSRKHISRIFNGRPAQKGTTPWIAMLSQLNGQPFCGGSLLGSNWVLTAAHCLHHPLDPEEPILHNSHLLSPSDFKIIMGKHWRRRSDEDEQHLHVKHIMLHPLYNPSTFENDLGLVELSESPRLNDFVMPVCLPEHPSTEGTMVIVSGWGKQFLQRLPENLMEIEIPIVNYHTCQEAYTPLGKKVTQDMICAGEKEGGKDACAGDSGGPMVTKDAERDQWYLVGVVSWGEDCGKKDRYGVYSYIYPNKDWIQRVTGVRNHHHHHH
Test: cell-based or functional assay

Row | rat MASP1 IC50 | Binder
22 | 1000 nM | B1
23 | 1000 nM | B2
24 | 1000 nM | B3

Biological target: T4, recombinant rat MASP2 (amino acids 296-685, C-terminal His Tag) (rat, UniProt Q9JJS8 296-685)
Test: cell-based or functional assay

T4 sequence (Q9JJS8 other isoform, or with tags, fused parts or gaps limits assumed): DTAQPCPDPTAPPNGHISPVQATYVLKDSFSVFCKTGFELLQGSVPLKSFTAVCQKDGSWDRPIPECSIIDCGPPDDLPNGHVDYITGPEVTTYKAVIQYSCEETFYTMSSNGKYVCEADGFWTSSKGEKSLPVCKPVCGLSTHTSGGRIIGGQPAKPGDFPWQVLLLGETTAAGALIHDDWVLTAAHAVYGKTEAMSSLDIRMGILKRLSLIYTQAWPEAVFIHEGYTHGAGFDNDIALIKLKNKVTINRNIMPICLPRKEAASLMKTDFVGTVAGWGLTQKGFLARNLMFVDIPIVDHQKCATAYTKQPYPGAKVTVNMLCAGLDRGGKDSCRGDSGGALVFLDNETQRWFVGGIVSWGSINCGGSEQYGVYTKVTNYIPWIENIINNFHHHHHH

Row | rat MASP2 IC50 | Binder
25 | 1000 nM | B1
26 | 126 nM | B2
27 | 232 nM | B3

Biological target: T3, recombinant rat MASP1 (amino acids …)
Test: cell-based or functional assay
Remark: another data set of the same source

Row | rat MASP1 IC50 | Binder
28 | 44 nM | cyclo(AGGICSRS[tBuAla]PPI[Pen]IP[dD]) (disulfide 5-13; also: TFA salt) [Example 39: A**GGIC+SRS-((tBu)A)-PPI-(Pen)+-IPd**]
29 | 79 nM | cyclo([Ahx]ICSRS[tBuAla]PPI[Pen]I) (disulfide 3-11; also: TFA salt) [Example 52: (Ahx)**-IC+SRS-((tBu)A)-PPI-(Pen)+-I**]
30 | 96 nM | cyclo([Ahx]AICSRS[tBuAla]PPI[Pen]IP) (disulfide 4-12; also: TFA salt) [Example 53: (Ahx)**-AIC+SRS-((tBu)A)-PPI-(Pen)+-IP**]
31 | 410 nM | EGICSRSLP[Oic]I[Pen]IPD[Dap]-NH2 (lactam 1-16; disulfide 4-12; also: TFA salt) [Example 93: E++GIC+SRSLP-(Oic)-I-(Pen)+-IPD-(Dap)++-NH2]
32 | 79 nM | cyclo([Ahx]GICSRS[tBuAla]PPI[Pen]IPD) (disulfide 4-12; also: TFA salt) [Example 28: (Ahx)**-GIC+SRS-((tBu)A)-PPI-(Pen)+-IPD**]
33 | 110 nM | cyclo(ICSRS[tBuAla]PPI[Pen]IPP) (disulfide 2-10; also: TFA salt) [Example 58: I**C+SRS-((tBu)A)-PPI-(Pen)+-IPP**]
34 | 170 nM | cyclo(AGGICSRSLP[Oic]I[Pen]IPD) (disulfide 5-13; also: TFA salt) [Example 92: A**GGIC+SRSLP-(Oic)-I-(Pen)+-IPD**]
35 | 180 nM | cyclo([Ahx][Sar]ICSRS[tBuAla]PPI[Pen]IP) (disulfide 4-12; also: TFA salt) [Example 54: (Ahx)**-((N-Me)G)-IC+SRS-((tBu)A)-PPI-(Pen)+-IP**]

Biological target: T4, recombinant rat MASP2 (amino acids …)
Test: cell-based or functional assay
Remark: another data set of the same source

Row | rat MASP2 IC50 | Binder
36 | 8 nM | cyclo(AGGICSRS[tBuAla]PPI[Pen]IP[dD]) (disulfide 5-13; also: TFA salt) [Example 39: A**GGIC+SRS-((tBu)A)-PPI-(Pen)+-IPd**]
37 | 11.6 nM | cyclo([Ahx]ICSRS[tBuAla]PPI[Pen]I) (disulfide 3-11; also: TFA salt) [Example 52: (Ahx)**-IC+SRS-((tBu)A)-PPI-(Pen)+-I**]
38 | 19 nM | cyclo([Ahx]AICSRS[tBuAla]PPI[Pen]IP) (disulfide 4-12; also: TFA salt) [Example 53: (Ahx)**-AIC+SRS-((tBu)A)-PPI-(Pen)+-IP**]
39 | 68 nM | EGICSRSLP[Oic]I[Pen]IPD[Dap]-NH2 (lactam 1-16; disulfide 4-12; also: TFA salt) [Example 93: E++GIC+SRSLP-(Oic)-I-(Pen)+-IPD-(Dap)++-NH2]
40 | 16 nM | cyclo([Ahx]GICSRS[tBuAla]PPI[Pen]IPD) (disulfide 4-12; also: TFA salt) [Example 28: (Ahx)**-GIC+SRS-((tBu)A)-PPI-(Pen)+-IPD**]
41 | 46 nM | cyclo(ICSRS[tBuAla]PPI[Pen]IPP) (disulfide 2-10; also: TFA salt) [Example 58: I**C+SRS-((tBu)A)-PPI-(Pen)+-IPP**]
42 | 41 nM | cyclo(AGGICSRSLP[Oic]I[Pen]IPD) (disulfide 5-13; also: TFA salt) [Example 92: A**GGIC+SRSLP-(Oic)-I-(Pen)+-IPD**]
43 | 18 nM | cyclo([Ahx][Sar]ICSRS[tBuAla]PPI[Pen]IP) (disulfide 4-12; also: TFA salt) [Example 54: (Ahx)**-((N-Me)G)-IC+SRS-((tBu)A)-PPI-(Pen)+-IP**]
